Columns and labels:
Khc-FL = Khc-FL (Drosophila melanogaster, UniProt P17210 1-975); experiment: EMSA
Khc 855-941 = Khc 855-941 (Drosophila melanogaster, UniProt P17210 855-941); experiment: EMSA
Chain of Khc 855-941 (P17210 855-941): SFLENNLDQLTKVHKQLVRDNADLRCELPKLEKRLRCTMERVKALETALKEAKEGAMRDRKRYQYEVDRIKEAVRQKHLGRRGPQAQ

Chain of Khc-FL (P17210 whole entry): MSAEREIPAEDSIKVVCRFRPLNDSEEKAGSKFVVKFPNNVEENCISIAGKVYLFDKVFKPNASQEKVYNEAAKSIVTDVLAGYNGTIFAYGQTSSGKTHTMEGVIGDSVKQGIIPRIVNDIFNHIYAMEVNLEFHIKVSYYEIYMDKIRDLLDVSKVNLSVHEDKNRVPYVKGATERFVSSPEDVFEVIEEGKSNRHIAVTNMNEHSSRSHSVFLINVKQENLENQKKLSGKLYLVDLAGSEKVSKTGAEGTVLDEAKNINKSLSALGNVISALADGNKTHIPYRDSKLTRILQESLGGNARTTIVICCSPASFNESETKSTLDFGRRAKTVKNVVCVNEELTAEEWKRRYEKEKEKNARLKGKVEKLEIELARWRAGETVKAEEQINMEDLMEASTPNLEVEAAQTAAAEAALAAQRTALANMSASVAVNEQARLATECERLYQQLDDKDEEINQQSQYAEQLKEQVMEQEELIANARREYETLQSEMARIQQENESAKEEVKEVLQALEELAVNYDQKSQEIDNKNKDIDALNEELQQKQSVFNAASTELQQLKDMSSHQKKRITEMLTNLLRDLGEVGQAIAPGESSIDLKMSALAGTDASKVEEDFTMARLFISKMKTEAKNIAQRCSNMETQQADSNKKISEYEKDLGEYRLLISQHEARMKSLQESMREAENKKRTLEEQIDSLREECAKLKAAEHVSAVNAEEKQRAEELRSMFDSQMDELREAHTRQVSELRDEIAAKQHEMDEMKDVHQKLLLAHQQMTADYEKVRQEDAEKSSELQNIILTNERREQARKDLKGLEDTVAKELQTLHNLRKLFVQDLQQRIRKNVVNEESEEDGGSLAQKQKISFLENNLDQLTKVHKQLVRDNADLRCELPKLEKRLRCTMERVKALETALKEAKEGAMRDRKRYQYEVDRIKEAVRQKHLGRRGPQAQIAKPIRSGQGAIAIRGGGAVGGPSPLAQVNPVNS

Binder: UUUUUUUUUUUUUUUUUUUUUUUUU (ssRNA) [oligo-(U25) RNA]
- binding result (Khc-FL): binds
- binding result (Khc 855-941): binds

Reference: article PMC8247599
